Experimental data taken from paper PMC9800556, “Kinetics of DNA strand transfer between polymerase and proofreading exonuclease active sites regulates error correction during high-fidelity replication” (The Journal of Biological Chemistry, 2022).

Legend:
[1] = molecular target: T1, T7 DNA polymerase (T7 DNA pol; T7 gp5 + E. coli thioredoxin) (Escherichia phage T7, UniProt P00581); experiment: rapid-quench ssDNA excision, denaturing PAGE, global fit (KinTek Explorer); format: biochemical; details: read-out: Best fit
T1 construct: gene 5; wild-type exo-proficient (x+) gp5 catalytic subunit, purified as previously described, reconstituted with at least twofold molar excess of E. coli thioredoxin; with Thioredoxin 1
Text: rapid-quench ssDNA excision, denaturing PAGE, global fit (KinTek Explorer) on T7 DNA polymerase (T7 DNA pol; T7 gp5 + E. coli thioredoxin) | dCMP binds to the free enzyme, acting as a weak competitive inhibitor for ssDNA binding

[2] = molecular target: T2, T7 DNA polymerase gp5 (wild-type, exo+);thioredoxin (accessory protein) (bacteriophage T7;Escherichia coli, UniProt P00581;P0AA25 1-704;2-109, |); experiment: equilibrium fluorescence titration (Trp-tCo FRET), quadratic fit; 2 uM thioredoxin; net Kd over pol, intermediate and exo sites; Mg2+ not stated for this titration; T7 reaction buffer (composition and pH not given in the material), 12.5 mM Mg2+; 20 C stated for rapid-quench; details: protein: recombinant;recombinant; tags: ;; copies: 1;1; label: tCo; primer/template, 18 nt template 5' overhang, 3'-terminal C:C mismatch
[3] = molecular target: T2, T7 DNA polymerase gp5 (wild-type, …); experiment: equilibrium fluorescence titration (Trp-tCo FRET), quadratic fit; 12.5 mM Mg2+, 2 uM thioredoxin; net Kd over all sites; T7 reaction buffer (composition and pH not given in the material), 12.5 mM Mg2+; 20 C stated for rapid-quench; details: protein: recombinant;recombinant; tags: ;; copies: 1;1; label: tCo; primer/template, 18 nt template 5' overhang, A:A mismatch buried by one terminal C:G pair
[4] = molecular target: T2, T7 DNA polymerase gp5 (wild-type, …); experiment: stopped-flow fluorescence anisotropy, global fit (with tCo-27-PThio titration); 12.5 mM Mg2+; k1 1100 uM-1 s-1, k-1 44 s-1; exo site; T7 reaction buffer (composition and pH not given in the material), 12.5 mM Mg2+; 20 C stated for rapid-quench; details: protein: recombinant;recombinant; tags: ;; copies: 1;1; label: 5' 6-FAM; single strand
[5] = molecular target: T2, T7 DNA polymerase gp5 (wild-type, …); experiment: equilibrium fluorescence titration (Trp-tCo FRET), hyperbolic fit; 12.5 mM Mg2+; exo site; T7 reaction buffer (composition and pH not given in the material), 12.5 mM Mg2+; 20 C stated for rapid-quench; details: protein: recombinant;recombinant; tags: ;; copies: 1;1; label: tCo; single strand

T2 sequence (P00581 whole entry, chain 1 of 2): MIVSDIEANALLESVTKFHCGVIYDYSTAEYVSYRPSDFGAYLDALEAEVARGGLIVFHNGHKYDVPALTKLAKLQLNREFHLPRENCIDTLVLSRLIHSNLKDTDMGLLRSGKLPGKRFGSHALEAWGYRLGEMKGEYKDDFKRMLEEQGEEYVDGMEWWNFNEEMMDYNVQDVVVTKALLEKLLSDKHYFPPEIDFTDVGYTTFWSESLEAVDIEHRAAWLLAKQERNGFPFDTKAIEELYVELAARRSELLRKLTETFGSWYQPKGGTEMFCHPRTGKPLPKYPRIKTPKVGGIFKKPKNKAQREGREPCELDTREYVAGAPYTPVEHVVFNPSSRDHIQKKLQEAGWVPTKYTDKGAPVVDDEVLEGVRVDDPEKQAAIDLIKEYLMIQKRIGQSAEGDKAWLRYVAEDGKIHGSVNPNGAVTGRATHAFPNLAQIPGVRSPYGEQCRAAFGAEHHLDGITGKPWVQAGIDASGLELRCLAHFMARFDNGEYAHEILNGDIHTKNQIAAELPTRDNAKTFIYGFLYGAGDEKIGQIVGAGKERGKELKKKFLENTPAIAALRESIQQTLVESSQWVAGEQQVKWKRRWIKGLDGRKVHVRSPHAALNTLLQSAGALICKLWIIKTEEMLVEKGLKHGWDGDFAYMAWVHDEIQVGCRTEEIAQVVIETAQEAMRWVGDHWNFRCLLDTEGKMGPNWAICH
T2 sequence (P0AA25 2-109, chain 2 of 2): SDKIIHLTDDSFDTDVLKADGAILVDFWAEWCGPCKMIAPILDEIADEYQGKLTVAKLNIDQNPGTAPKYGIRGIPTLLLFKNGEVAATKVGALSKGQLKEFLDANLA
T1 sequence (P00581 whole entry): as the sequence (P00581 whole entry, chain 1 of 2) above
T1 sequence (P0AA25 2-109 partner): as the sequence (P0AA25 2-109, chain 2 of 2) above

With `Nc1ccn([C@H]2C[C@H](O)[C@@H](COP(=O)(O)O)O2)c(=O)n1` [dCMP] the Ki [1] was 5650 µM.

B1: tCo-27-PThio/45-3'MM-PThio (dsDNA)
DNA 1: CCGTCGCAGCCGTCCAACCAACTACAC
DNA 2: GGACGGCATTGGATCGATCTGTAGTTGGTTGGACGGCTGCGACGG
modifications: primer: tCo at position 25, Sp phosphorothioate at the 3'-terminal linkage; template: phosphorothioate at the 3'-terminal linkage
In the case of B1, the Kd [2] is reported as 0.0007 ± 0.0001 µM.

B2: tCo-27-PThio/45-BMM-PThio (dsDNA)
DNA 1: CCGTCGCAGCCGTCCAACCAACTACAC
DNA 2: GGACGGCATTGGATCGATGAGTAGTTGGTTGGACGGCTGCGACGG
modifications: primer: tCo at position 25, Sp phosphorothioate at the 3'-terminal linkage; template: phosphorothioate at the 3'-terminal linkage
Work on B2 yielded a Kd [3] of about 0.0005 µM.

B3: FAM-27-PThio (ssDNA)
DNA: CCGTCGCAGCCGTCCAACCAACTACAC
modifications: Sp phosphorothioate at the 3'-terminal linkage (A*C)
With B3 the Kd [4] was 0.04 ± 0.0014 µM.

B4: tCo-27-PThio (ssDNA)
DNA: CCGTCGCAGCCGTCCAACCAACTACAC
modifications: tCo (1,3-diaza-2-oxophenoxazine, C analog) at position 25; Sp phosphorothioate at the 3'-terminal linkage
B4 gave a Kd [5] of about 0.06 µM.
